This note sets out measurements from publication PMC3782296 (Journal of molecular biology, 2011).

The series concerns the molecule itself. Description: cross-linking.

B1: wild-type human Tom40A lacking amino acid residues 1 to 82 (hTom40AΔ1-82) (domain or fragment, UniProt O96008 83-361, looked up)
chain: FEECHRKCKELFPIQMEGVKLTVNKGLSNHFQVNHTVALSTIGESNYHFGVTYVGTKQLSPTEAFPVLVGDMDNSGSLNAQVIHQLGPGLRSKMAIQTQQSKFVNWQVDGEYRGSDFTAAVTLGNPDVLVGSGILVAHYLQSITPCLALGGELVYHRRPGEEGTVMSLAGKYTLNNWLATVTLGQAGMHATYYHKASDQLQVGVEFEASTRMQDTSVSFGYQLDLPKANLLFKGSVDSNWIVGATLEKKLPPLPLTLALGAFLNHRKNKFQCGFGLTIG
In general, stoichiometry N refers to the number of molecules, sites or subunits per partner or assembly. In the case of B1, the “stoichiometry N” value came to 2.
